Our source for the Km values is article PMC8115037, “Paracoccus denitrificans: a genetically tractable model system for studying respiratory complex I” (Scientific Reports, 2021).

Assay type in all cases: biochemical, Paracoccus denitrificans
Common to all, as to details: FMN, FeS clusters

Substrate in data set [1]: COC1=C(OC)C(=O)C(CC=C(C)C)=C(C)C1=O
Kind of data set: KM, quinone reduction by purified soluble enzyme.

Substrate in data set [2]: CCCCCCCCCCC1=C(C)C(=O)C(OC)=C(OC)C1=O
Kind of data set: KM, NADH:DQ oxidoreduction by purified soluble enzyme.

Substrate in data set [3]: COC1=C(OC)C(=O)C(C/C=C(\C)CC/C=C(\C)CC/C=C(\C)CC/C=C(\C)CC/C=C(\C)CC/C=C(\C)CC/C=C(\C)CC/C=C(\C)CC/C=C(\C)CCC=C(C)C)=C(C)C1=O
As to the kind of experiment: purified protein.

B1: complex I (NADH:ubiquinone oxidoreductase), Pd-CI (Paracoccus denitrificans PD1222) (protein)
chain 1: MDGDIRKNSYDDGSMDALTGEQSIRNFNINFGPQHPAAHGVLRMVLELDGEIVERADPHIGLLHRGTEKLMESRTYLQNLPYLDRLDYVAPMNQEHAWCLAIERLTGTVIPRRASLIRVLYSEIGRILNHLMGVTTGAMDVGALTPPLWGFEAREELMIFYERACGARLHAAYFRPGGVHQDLPPDLLDDIEEWCERFPKLVDDLDTLLTENRIFKQRLVDIGIVTEADALDWGYTGVMVRGSGLAWDLRRSQPYECYDEFDFQIPVGRNGDCYDRYLCRMAEMRESCKIMQQAVQKLRAEPAGDVLARGKLTPPRRAEMKRDMESLIHHFKLYTEGFKVPAGEVYAAVEAPKGEFGVYLVADGTNKPWRAKLRAPGFAHLQSIDWMSRGHMLADVPAIIATLDIVFGEVDR
chain 2: MMTGLNTAGADRDLATAELNRELQDKGFLLTTTEDIINWARNGSLHWMTFGLACCAVEMMQTSMPRYDLERFGTAPRASPRQSDLMIVAGTLTNKMAPALRKVYDQMPEPRYVISMGSCANGGGYYHYSYSVVRGCDRIVPVDIYVPGCPPTAEALLYGILQLQRRIRRTGTLVR
chain 3: MAEFWASPYGFALSMLLQGLAVIAFVMGSLIFMVYGDRKIWAAVQMRRGPNVVGPWGLLQTFADALKYIVKEIVIPAGADKFVYFLAPFLSMMLALFAFVVIPFDEGWVMANINVGILFIFAASSLEVYGVIMGGWASNSKYPFLASLRSAAQMISYEVSLGLIIIGIIISTGSMNLTAIVEAQRGDYGLLNWYWLPHLPMVVLFFVSALAECNRPPFDLVEAESELVAGFMTEYSSTPYLLFMAGEYIAMYLMCALLSLLFFGGWLSPVPFIADGWWWMVIKMWFWFYMFAMVKAIVPRYRYDQLMRIGWKVFLPLSLGWVVLVAILARYEILGGFWARFAVGG
chain 4: MLNDQDRIFTNLYGMGDRSLAGAKKRGHWDGTAAIIQRGRDKIIDEMKASGLRGRGGAGFPTGMKWSFMPKESDGRPSYLVINADESEPATCKDREIMRHDPHTLIEGALIASFAMGAHAAYIYIRGEFIREREALQAAIDECYDAGLLGRNAAGSGWDFDLYLHHGAGAYICGEETALLESLEGKKGMPRMKPPFPAGAGLYGCPTTVNNVESIAVVPTILRRGAEWFASFGRPNNAGVKLFGLTGHVNTPCVVEEAMSIPMRELIEKHGGGIRGGWKNLKAVIPGGASCPVLTAEQCENAIMDYDGMRDVRSSFGTACMIVMDQSTDVVKAIWRLSKFFKHESCGQCTPCREGTGWMMRVMERLVRGDAEVEEIDMLFDVTKQVEGHTICALGDAAAWPIQGLIRNFREEIEDRIKAKRTGRMGAMAAE
notes: intact purified complex I, His6-tag on Nqo5; with multisubunit complex (14 core Nqo subunits plus PdNUMM, PdNUYM, PdN7BM)
The term Km denotes the substrate concentration at which the rate is half of its maximum. With B1, the Michaelis constant (Km) in data set [1] worked out at 124 ± 8 µM; in data set [2], 169 ± 15 µM.

B2: complex I (NADH:ubiquinone oxidoreductase), Pd-CI (Paracoccus denitrificans PD1222) (protein)
chain 1: B1 chain 1
chain 2: B1 chain 2
chain 3: B1 chain 3
notes: purified complex I reconstituted in proteoliposomes, His6-tag on Nqo5; with multisubunit complex (14 core Nqo subunits plus PdNUMM, PdNUYM, PdN7BM)
With B2, the Km in data set [3] worked out at 1100 ± 200 µM.
